Test results from publication PMC9482650, “Quantitative fragmentomics allow affinity mapping of interactomes” (Nature Communications, 2022).

T1: LIN7B, Q9HAP6
T1 sequence (Q9HAP6 88-185, limits assumed, looked up): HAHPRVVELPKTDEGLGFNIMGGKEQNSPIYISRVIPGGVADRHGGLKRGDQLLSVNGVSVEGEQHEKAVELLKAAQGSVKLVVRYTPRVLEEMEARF

T2: MPDZ_10, O75970
T2 sequence (O75970 1624-1722, limits assumed, looked up): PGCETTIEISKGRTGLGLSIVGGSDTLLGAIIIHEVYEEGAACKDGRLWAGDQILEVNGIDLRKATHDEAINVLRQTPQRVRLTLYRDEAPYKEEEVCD

T3: DLG3_3, Q92796
T3 sequence (Q92796 374-475, limits assumed, looked up): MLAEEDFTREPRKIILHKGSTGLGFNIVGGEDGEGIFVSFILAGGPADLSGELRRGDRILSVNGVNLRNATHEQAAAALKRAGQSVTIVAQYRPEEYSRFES

T4: SNTA1, Q13424
T4 sequence (Q13424 82-180, limits assumed, looked up): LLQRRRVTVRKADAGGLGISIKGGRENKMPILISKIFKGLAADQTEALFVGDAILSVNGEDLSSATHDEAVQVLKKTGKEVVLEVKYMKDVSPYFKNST

T5: DFNB31_2, Q9P202
T5 sequence (Q9P202 274-371, limits assumed, looked up): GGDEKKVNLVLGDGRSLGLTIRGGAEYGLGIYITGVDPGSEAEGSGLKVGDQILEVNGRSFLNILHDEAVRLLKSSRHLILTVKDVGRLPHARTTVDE

T6: TIAM2, Q8IVF5
T6 sequence (Q8IVF5 885-986, limits assumed, looked up): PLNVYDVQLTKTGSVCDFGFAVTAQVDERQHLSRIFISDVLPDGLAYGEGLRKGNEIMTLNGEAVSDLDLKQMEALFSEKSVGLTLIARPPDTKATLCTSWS

T7: RAPGEF6, Q8TEU7
T7 sequence (Q8TEU7 525-625, limits assumed, looked up): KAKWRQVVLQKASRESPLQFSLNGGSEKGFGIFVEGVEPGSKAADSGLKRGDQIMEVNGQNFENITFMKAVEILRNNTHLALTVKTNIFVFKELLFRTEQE

T8: DFNB31_1, Q9P202
T8 sequence (Q9P202 135-233, limits assumed, looked up): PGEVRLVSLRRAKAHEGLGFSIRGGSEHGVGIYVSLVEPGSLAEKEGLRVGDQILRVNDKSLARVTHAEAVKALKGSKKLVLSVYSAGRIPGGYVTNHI

T9: NHERF3_1, Q5T2W1
T9 sequence (Q5T2W1 4-100, limits assumed, looked up): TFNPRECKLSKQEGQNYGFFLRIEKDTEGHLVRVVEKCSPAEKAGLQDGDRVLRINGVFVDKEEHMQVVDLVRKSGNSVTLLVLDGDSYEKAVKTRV

T10: HTRA4, P83105
T10 sequence (P83105 378-476, limits assumed, looked up): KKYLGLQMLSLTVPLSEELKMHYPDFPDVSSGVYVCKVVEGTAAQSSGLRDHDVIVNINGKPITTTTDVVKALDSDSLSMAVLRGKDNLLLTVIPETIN

T11: DVL3, Q92997
T11 sequence (Q92997 244-331, limits assumed, looked up): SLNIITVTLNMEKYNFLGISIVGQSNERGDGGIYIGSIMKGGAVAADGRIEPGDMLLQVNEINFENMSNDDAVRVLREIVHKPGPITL

T12: SNTG1, Q9NSN8
T12 sequence (Q9NSN8 52-150, limits assumed, looked up): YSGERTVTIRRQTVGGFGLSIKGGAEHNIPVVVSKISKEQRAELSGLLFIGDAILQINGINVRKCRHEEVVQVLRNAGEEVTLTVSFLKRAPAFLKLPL

T13: SNTG2, Q9NY99
T13 sequence (Q9NY99 68-166, limits assumed, looked up): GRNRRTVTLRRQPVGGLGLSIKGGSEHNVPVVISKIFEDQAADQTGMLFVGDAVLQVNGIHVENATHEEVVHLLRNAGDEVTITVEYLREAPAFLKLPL

B1: SLC17A1, Q14916 (peptide)
chain: WAKEKQHTRL
B2: CSPG4, Q6UVK1 (peptide)
chain: PALKNGQYWV
B3: KCNB1, Q14721 (peptide)
chain: AHGSTRDQSI

Biological target: T1, LIN7B, Q9HAP6
Test: holdup assay
Set-up: key: below the threshold = too weak to quantify, mostly under pKd 3.1 to 4
Details: plain residues with an end cap or a label only (N-terminal biotin on a linker: ado-ado)

| pKd | Binder |
| --- | --- |
| below the threshold | B1 |
| below the threshold | B2 |
| 3.68 | B3 |

Biological target: LIMK2, P53671
Test: holdup assay
Set-up: key: below the threshold = too weak to quantify, mostly under pKd 3.1 to 4
Details: plain residues with an end cap or a label only (N-terminal biotin on a linker: ado-ado)

LIMK2, P53671, sequence (P53671 143-248): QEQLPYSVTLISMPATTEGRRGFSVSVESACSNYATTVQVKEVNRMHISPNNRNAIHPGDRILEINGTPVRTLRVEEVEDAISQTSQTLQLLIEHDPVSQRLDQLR

| pKd | Binder |
| --- | --- |
| below the threshold | B1 |
| below the threshold | B2 |
| below the threshold | B3 |

Biological target: GORASP2, Q9H8Y8
Test: holdup assay
Set-up: key: below the threshold = too weak to quantify, mostly under pKd 3.1 to 4
Details: plain residues with an end cap or a label only (N-terminal biotin on a linker: ado-ado)

| pKd | Binder |
| --- | --- |
| below the threshold | B1 |
| 5.82 | B2 |
| 3.67 | B3 |

Biological target: SCRIB_1, Q14160
Test: holdup assay
Set-up: key: below the threshold = too weak to quantify, mostly under pKd 3.1 to 4
Details: plain residues with an end cap or a label only (N-terminal biotin on a linker: ado-ado)

SCRIB_1, Q14160, sequence (Q14160 718-814): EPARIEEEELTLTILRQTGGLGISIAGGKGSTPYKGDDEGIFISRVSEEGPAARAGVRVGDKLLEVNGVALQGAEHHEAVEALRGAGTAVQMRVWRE

| pKd | Binder |
| --- | --- |
| 4.21 | B1 |
| below the threshold | B2 |
| below the threshold | B3 |

Biological target: PDLIM1, O00151
Test: holdup assay
Set-up: key: below the threshold = too weak to quantify, mostly under pKd 3.1 to 4
Details: plain residues with an end cap or a label only (N-terminal biotin on a linker: ado-ado)

PDLIM1, O00151, sequence (O00151 1-87): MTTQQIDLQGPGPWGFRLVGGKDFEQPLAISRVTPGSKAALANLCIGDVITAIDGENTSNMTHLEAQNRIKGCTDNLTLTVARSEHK

| pKd | Binder |
| --- | --- |
| below the threshold | B1 |
| below the threshold | B2 |
| below the threshold | B3 |

Biological target: T2, MPDZ_10, O75970
Test: holdup assay
Set-up: key: below the threshold = too weak to quantify, mostly under pKd 3.1 to 4
Details: plain residues with an end cap or a label only (N-terminal biotin on a linker: ado-ado)

| pKd | Binder |
| --- | --- |
| below the threshold | B1 |
| below the threshold | B2 |
| below the threshold | B3 |

Biological target: T3, DLG3_3, Q92796
Test: holdup assay
Set-up: key: below the threshold = too weak to quantify, mostly under pKd 3.1 to 4
Details: plain residues with an end cap or a label only (N-terminal biotin on a linker: ado-ado)

| pKd | Binder |
| --- | --- |
| below the threshold | B1 |
| below the threshold | B2 |
| 3.75 | B3 |

Biological target: IL16_4, Q14005
Test: holdup assay
Set-up: key: below the threshold = too weak to quantify, mostly under pKd 3.1 to 4
Details: plain residues with an end cap or a label only (N-terminal biotin on a linker: ado-ado)

IL16_4, Q14005, sequence (Q14005 1229-1329): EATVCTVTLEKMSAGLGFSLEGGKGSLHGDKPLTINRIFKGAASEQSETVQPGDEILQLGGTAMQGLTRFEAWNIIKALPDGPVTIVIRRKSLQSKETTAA

| pKd | Binder |
| --- | --- |
| below the threshold | B1 |
| below the threshold | B2 |
| below the threshold | B3 |

Biological target: T4, SNTA1, Q13424
Test: holdup assay
Set-up: key: below the threshold = too weak to quantify, mostly under pKd 3.1 to 4
Details: plain residues with an end cap or a label only (N-terminal biotin on a linker: ado-ado)

| pKd | Binder |
| --- | --- |
| 3.77 | B1 |
| below the threshold | B2 |
| below the threshold | B3 |

Biological target: T5, DFNB31_2, Q9P202
Test: holdup assay
Set-up: key: below the threshold = too weak to quantify, mostly under pKd 3.1 to 4
Details: plain residues with an end cap or a label only (N-terminal biotin on a linker: ado-ado)

| pKd | Binder |
| --- | --- |
| below the threshold | B1 |
| below the threshold | B2 |
| below the threshold | B3 |

Biological target: Inadl_8, Q8NI35
Test: holdup assay
Set-up: key: below the threshold = too weak to quantify, mostly under pKd 3.1 to 4
Details: plain residues with an end cap or a label only (N-terminal biotin on a linker: ado-ado)

Inadl_8, Q8NI35, sequence (Q8NI35 1425-1530): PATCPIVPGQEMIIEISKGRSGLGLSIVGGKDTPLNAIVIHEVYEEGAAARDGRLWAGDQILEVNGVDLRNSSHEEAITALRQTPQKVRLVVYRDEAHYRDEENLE

| pKd | Binder |
| --- | --- |
| below the threshold | B1 |
| 3.5 | B2 |
| below the threshold | B3 |

Biological target: T6, TIAM2, Q8IVF5
Test: holdup assay
Set-up: key: below the threshold = too weak to quantify, mostly under pKd 3.1 to 4
Details: plain residues with an end cap or a label only (N-terminal biotin on a linker: ado-ado)

| pKd | Binder |
| --- | --- |
| below the threshold | B1 |
| 4.83 | B2 |
| 4.05 | B3 |

Biological target: T7, RAPGEF6, Q8TEU7
Test: holdup assay
Set-up: key: below the threshold = too weak to quantify, mostly under pKd 3.1 to 4
Details: plain residues with an end cap or a label only (N-terminal biotin on a linker: ado-ado)

| pKd | Binder |
| --- | --- |
| below the threshold | B1 |
| below the threshold | B2 |
| 3.91 | B3 |

Biological target: T8, DFNB31_1, Q9P202
Test: holdup assay
Set-up: key: below the threshold = too weak to quantify, mostly under pKd 3.1 to 4
Details: plain residues with an end cap or a label only (N-terminal biotin on a linker: ado-ado)

| pKd | Binder |
| --- | --- |
| 3.65 | B1 |
| below the threshold | B2 |
| below the threshold | B3 |

Biological target: T9, NHERF3_1, Q5T2W1
Test: holdup assay
Set-up: key: below the threshold = too weak to quantify, mostly under pKd 3.1 to 4
Details: plain residues with an end cap or a label only (N-terminal biotin on a linker: ado-ado)

| pKd | Binder |
| --- | --- |
| 4.73 | B1 |
| below the threshold | B2 |
| below the threshold | B3 |

Biological target: IL16_1, Q14005
Test: holdup assay
Set-up: key: below the threshold = too weak to quantify, mostly under pKd 3.1 to 4
Details: plain residues with an end cap or a label only (N-terminal biotin on a linker: ado-ado)

IL16_1, Q14005, sequence (Q14005 210-306): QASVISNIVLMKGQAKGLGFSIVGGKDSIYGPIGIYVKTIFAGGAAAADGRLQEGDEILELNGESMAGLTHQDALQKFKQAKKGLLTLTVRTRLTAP

| pKd | Binder |
| --- | --- |
| below the threshold | B1 |
| 3.79 | B2 |
| below the threshold | B3 |

Biological target: NOS1, P29475
Test: holdup assay
Set-up: key: below the threshold = too weak to quantify, mostly under pKd 3.1 to 4
Details: plain residues with an end cap or a label only (N-terminal biotin on a linker: ado-ado)

NOS1, P29475, sequence (P29475 9-101): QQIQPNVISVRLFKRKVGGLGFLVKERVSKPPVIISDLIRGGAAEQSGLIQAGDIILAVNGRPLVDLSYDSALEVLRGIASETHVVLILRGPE

| pKd | Binder |
| --- | --- |
| 3.71 | B1 |
| 4.09 | B2 |
| below the threshold | B3 |

Biological target: T10, HTRA4, P83105
Test: holdup assay
Set-up: key: below the threshold = too weak to quantify, mostly under pKd 3.1 to 4
Details: plain residues with an end cap or a label only (N-terminal biotin on a linker: ado-ado)

| pKd | Binder |
| --- | --- |
| below the threshold | B1 |
| 4.14 | B2 |
| below the threshold | B3 |

Biological target: T11, DVL3, Q92997
Test: holdup assay
Set-up: key: below the threshold = too weak to quantify, mostly under pKd 3.1 to 4
Details: plain residues with an end cap or a label only (N-terminal biotin on a linker: ado-ado)

| pKd | Binder |
| --- | --- |
| below the threshold | B1 |
| 4.2 | B2 |
| 3.66 | B3 |

Biological target: FRMPD2_3, Q68DX3
Test: holdup assay
Set-up: key: below the threshold = too weak to quantify, mostly under pKd 3.1 to 4
Details: plain residues with an end cap or a label only (N-terminal biotin on a linker: ado-ado)

FRMPD2_3, Q68DX3, sequence (Q68DX3 1073-1166): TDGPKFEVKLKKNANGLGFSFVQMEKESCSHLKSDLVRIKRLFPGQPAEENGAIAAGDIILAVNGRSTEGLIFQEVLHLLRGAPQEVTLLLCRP

| pKd | Binder |
| --- | --- |
| below the threshold | B1 |
| below the threshold | B2 |
| below the threshold | B3 |

Biological target: PARD3_3, Q8TEW0
Test: holdup assay
Set-up: key: below the threshold = too weak to quantify, mostly under pKd 3.1 to 4
Details: plain residues with an end cap or a label only (N-terminal biotin on a linker: ado-ado)

PARD3_3, Q8TEW0, sequence (Q8TEW0 582-685): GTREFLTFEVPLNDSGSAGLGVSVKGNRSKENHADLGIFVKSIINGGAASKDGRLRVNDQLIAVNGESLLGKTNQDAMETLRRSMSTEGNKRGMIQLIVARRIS

| pKd | Binder |
| --- | --- |
| below the threshold | B1 |
| 3.96 | B2 |
| below the threshold | B3 |

Biological target: T12, SNTG1, Q9NSN8
Test: holdup assay
Set-up: key: below the threshold = too weak to quantify, mostly under pKd 3.1 to 4
Details: plain residues with an end cap or a label only (N-terminal biotin on a linker: ado-ado)

| pKd | Binder |
| --- | --- |
| below the threshold | B1 |
| below the threshold | B2 |
| 3.5 | B3 |

Biological target: DLG5_1, Q8TDM6
Test: holdup assay
Set-up: key: below the threshold = too weak to quantify, mostly under pKd 3.1 to 4
Details: plain residues with an end cap or a label only (N-terminal biotin on a linker: ado-ado)

DLG5_1, Q8TDM6, sequence (Q8TDM6 617-713): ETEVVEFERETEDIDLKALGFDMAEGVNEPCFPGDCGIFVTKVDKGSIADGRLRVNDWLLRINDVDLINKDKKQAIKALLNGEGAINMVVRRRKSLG

| pKd | Binder |
| --- | --- |
| below the threshold | B1 |
| below the threshold | B2 |
| 4.06 | B3 |

Biological target: GRIP2_5, Q9C0E4
Test: holdup assay
Set-up: key: below the threshold = too weak to quantify, mostly under pKd 3.1 to 4
Details: plain residues with an end cap or a label only (N-terminal biotin on a linker: ado-ado)

GRIP2_5, Q9C0E4, sequence (Q9C0E4 544-642): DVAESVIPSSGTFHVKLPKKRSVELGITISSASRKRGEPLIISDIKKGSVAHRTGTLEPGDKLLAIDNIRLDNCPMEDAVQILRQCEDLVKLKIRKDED

| pKd | Binder |
| --- | --- |
| below the threshold | B1 |
| below the threshold | B2 |
| below the threshold | B3 |

Biological target: T13, SNTG2, Q9NY99
Test: holdup assay
Set-up: key: below the threshold = too weak to quantify, mostly under pKd 3.1 to 4
Details: plain residues with an end cap or a label only (N-terminal biotin on a linker: ado-ado)

| pKd | Binder |
| --- | --- |
| 4.15 | B1 |
| below the threshold | B2 |
| below the threshold | B3 |
